Test results: patent US20110263824A1

Biological target: human serum protein
Assay: human serum (1:800) adsorbed to TM2 variant-immobilized magnetic beads, HRP-labeled anti-human IgG detection

TM2 D40NR104E was tested, and the Non-specific binding to serum protein (A450) was 0.56 A450.
